Experimental data from US20190352365.

What was measured:
[1] = target: T1, CBD-intein-S-TEV site-liraglutide fusion protein
T1 chain: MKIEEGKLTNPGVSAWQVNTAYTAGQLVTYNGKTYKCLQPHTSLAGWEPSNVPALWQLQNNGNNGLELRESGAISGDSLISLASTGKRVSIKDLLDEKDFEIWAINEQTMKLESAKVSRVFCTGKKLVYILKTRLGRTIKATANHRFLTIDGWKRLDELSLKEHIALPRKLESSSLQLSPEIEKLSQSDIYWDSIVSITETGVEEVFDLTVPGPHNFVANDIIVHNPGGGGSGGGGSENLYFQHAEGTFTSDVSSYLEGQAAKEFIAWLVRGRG

[2] = target: T2, CBD-intein-Spacer(S)-TEV site-teriparatide fusion protein
T2 chain: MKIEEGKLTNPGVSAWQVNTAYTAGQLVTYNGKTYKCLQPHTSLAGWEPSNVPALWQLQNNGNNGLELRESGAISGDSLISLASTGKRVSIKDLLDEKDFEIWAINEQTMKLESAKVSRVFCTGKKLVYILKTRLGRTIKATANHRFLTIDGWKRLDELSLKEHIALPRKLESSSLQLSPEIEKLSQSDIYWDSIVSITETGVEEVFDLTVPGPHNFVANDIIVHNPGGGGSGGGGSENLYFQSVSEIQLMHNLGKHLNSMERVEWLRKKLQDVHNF

B1: TEV protease (protein)
chain: GESLFKGPRDYNPISSTICHLTNESDGHTTSLYGIGFGPFIITNKHLFRRNNGTLLVQSLHGVFKVKNTTTLQQHLIDGRDMIIIRMPKDFPPFPQKLKFREPQREERICLVTTNFQTKSMSSMVSDTSCTFPSSDGIFWKHWIQTKDGQCGSPLVSTRDGFIVGIHSASNFTNTNNYFTSVPKNFMELLTNQEAQQWVSGWRLNADSVLWGGHKVFMSKPEEPFQPVKEATQLMNELVYSQ
- TEV protease-mediated cleavage of the fusion protein (SDS-PAGE, pH 8.0) [1]: cleavage by the TEV protease resulted in the release of liraglutide
- TEV protease-mediated cleavage of the fusion protein (SDS-PAGE and western blot, pH 8.0 and pH 7.0) [2]: cleavage by the TEV protease resulted in the release of teriparitide
